B1: α2(VI): monomeric alpha 2 single chain of collagen VI isolated from human placentas (protein, UniProt P12110 21-1019, looked up)
Collagen alpha-2(VI) chain: QQQEVISPDTTERNNNCPEKTDCPIHVYFVLDTSESVTMQSPTDILLFHMKQFVPQFISQLQNEFYLDQVALSWRYGGLHFSDQVEVFSPPGSDRASFIKNLQGISSFRRGTFTDCALANMTEQIRQDRSKGTVHFAVVITDGHVTGSPCGGIKLQAERAREEGIRLFAVAPNQNLKEQGLRDIASTPHELYRNDYATMLPDSTEIDQDTINRIIKVMKHEAYGECYKVSCLEIPGPSGPKGYRGQKGAKGNMGEPGEPGQKGRQGDPGIEGPIGFPGPKGVPGFKGEKGEFGADGRKGAPGLAGKNGTDGQKGKLGRIGPPGCKGDPGNRGPDGYPGEAGSPGERGDQGGKGDPGRPGRRGPPGEIGAKGSKGYQGNSGAPGSPGVKGAKGGPGPRGPKGEPGRRGDPGTKGSPGSDGPKGEKGDPGPEGPRGLAGEVGNKGAKGDRGLPGPRGPQGALGEPGKQGSRGDPGDAGPRGDSGQPGPKGDPGRPGFSYPGPRGAPGEKGEPGPRGPEGGRGDFGLKGEPGRKGEKGEPADPGPPGEPGPRGPRGVPGPEGEPGPPGDPGLTECDVMTYVRETCGCCDCEKRCGALDVVFVIDSSESIGYTNFTLEKNFVINVVNRLGAIAKDPKSETGTRVGVVQYSHEGTFEAIQLDDERIDSLSSFKEAVKNLEWIAGGTWTPSALKFAYDRLIKESRRQKTRVFAVVITDGRHDPRDDDLNLRALCDRDVTVTAIGIGDMFHEKHESENLYSIACDKPQQVRNMTLFSDLVAEKFIDDMEDVLCPDPQIVCPDLPCQTELSVAQCTQRPVDIVFLLDGSERLGEQNFHKARRFVEQVARRLTLARRDDDPLNARVALLQFGGPGEQQVAFPLSHNLTAIHEALETTQYLNSFSHVGAGVVHAINAIVRSPRGGARRHAELSFVFLTDGVTGNDSLHESAHSMRKQNVVPTVLALGSDVDMDVLTTLSLGDRAAVFHEKDYDSLAQPGFFDRFIRWIC

Tests used:
[1] = system: 10% FBS-induced proliferation of HSC; test: Inhibition of 10% FBS-induced proliferation by alpha single chains, [3H]-thymidine incorporation; type: cell-based, rat; details: cells grown in 10% FBS, Fig 4A
Description: (§1) 5x10^3CFSC in 100 μl 10% FBS were seeded into a 96-well flat-bottom tissue culture plate (Nunc, Roskilde, Denmark). After 24 hours, medium was completely removed, and cells were rinsed with 200 μl phosphate-buffered saline and 100 μl standard medium containing only 0.25% FBS were added. Cells were cultured for additional 24 h prior to treatment. Synchronized microcultures in 96-well plates were treated for 2 hours in reduction medium. When appropriate, the reduction medium was supplemented with 40 mg/l of α1(VI), α2(VI) or α3(VI). Then, 30 mg/l CVI or CI as control were added and cells were incubated for 24 h after which [^3H]-thymidine was added for additional 24 h. To assess effects of α3(VI)-derived 30-mer peptides on CVI-induced proliferation of CFSC, the reduction medium was supplemented with a 100-fold molar excess of the respective 30-mer peptides compared to CVI. [^3H]-thymidine incorporation was measured as described before. Cells treated with 150 mmol/l HAc or grown in 10% FBS served as negative and positive controls, respectively. During the last 4 hours of treatment, all cultures received 18.5 kBq [^3H]-thymidine (Amersham, Freiburg, Germany). Cells were fixed with 10% trichloroacetic acid and lysed by 200 mmol/l NaOH. After neutralization with 800 mmol/l HCl, lysates were collected to a glassfibre mat and the de-novo DNA synthesis was assessed by liquid scintillation (LKB Wallac, Bromma, Sweden) and the radioactive decay was counted (for) a minute (cpm).

CFSC = test: Fibrosis-associated gene expression, quantitative real-time PCR; type: cell-based, rat; details: serum-starved CFSC; 30 mg/l CVI plus 133 mg/l monomeric alpha chain; 24 h; n = 4
Description: 30 mg/l CVI, 133 mg/l of the monomeric alpha chains of CVI and/or TGF-β (2 ng/ml) were added after 24 h. […] Reverse transcribed complementary DNA templates were amplified by quantitative real-time polymerase chain reaction (PCR; Roche Diagnostics, Mannheim, Germany) using fluorogenic probes labeled with 6-carboxy-fluorescein and 6-carboxy-tetramethylrhodamin (Sigma- Genosys, Steinheim, Germany) and primer pairs (Invitrogen, Karlsruhe, Germany) specific for fibrosis-associated genes (for sequences see S2 Table). Gene expressions were normalized to glyceraldehyde phosphate dehydrogenase (GAPDH).

[2] = Live/Dead Viability/Cytotoxicity Kit (Calcein AM staining); type: cell-based; details: 24 h with individual chains; S4 Fig; three independent experiments
Description: Supplementary file pone.0254557.s004.pdf: S4 Fig Single CVI chains are not toxic To exclude that the effects of the alpha chains on proliferation or gene expression are due to cytotoxic effects, cells were treated 24 h with individual chains and cell viability was determined using the two-colour fluorescence Live/Dead™ Viability/Cytotoxicity Kit (Invitrogen™). Methanol (10% in medium) was used a positive control to induce cell toxicity. Medium was used as a non-toxic negative control. Since acetic acid (HAc) is used as solvent of the chains, cells treated with 0.15 M HAc were included as an additional control group. Shown are Mean ± SD of three independent experiments. Statistics were calculated by one-way ANOVA analysis and Tukey’s multiple comparisons test. Differences p<0.05 were considered significant. (PDF) Click here for additional data file.

[3] = system: CVI-induced proliferation of HSC; test: Inhibition of CVI-induced proliferation by alpha single chains, [3H]-thymidine incorporation; type: cell-based, rat; details: 40 mg/l single chain, then 30 mg/l CVI; 24 h; primary rHSCs, n = three; Fig 4A legend: CFSC, n = 4
Description: as §1

rat HSCs = details: blocking integrins in rat HSCs; cited from earlier work
Excerpt: While the mechanisms underlying this anti-apoptotic property of CVI remain to be fully established, our studies point to a potent repression of BAX by soluble CVI. […] This growth factor withdrawal-induced p53 and Bax upregulation can be mitigated by ECM components through integrin-mediated adhesion and spreading as shown for rat HSCs.

Molecule	effect on 10% FBS-induced proliferation [1]	effect on CVI-induced expression of αSMA, CI and TGF-β (CFSC)	cytotoxic effects (Calcein AM staining, cell viability) [2]	inhibition of DNA synthesis in the presence of CVI [3] [%]	increase in the Bax/Bcl-2 ratio (rat HSCs) [fold]
α3(VI): monomeric alpha 3 single chain of collagen VI isolated from human placentas	did not block any FBS-induced proliferation	largely blocked	not secondary to cytotoxic effects	70	
Gly-Arg-Gly-Asp-Ser [GRGDS]					3
B1	also inhibited 10% FBS-induced proliferation	largely blocked	not secondary to cytotoxic effects	60	

Source: publication PMC8412337, “Alpha-single chains of collagen type VI inhibit the fibrogenic effects of triple helical collagen VI in hepatic stellate cells” (PLoS ONE, 2021)
